Test results reported in US20180057888A1 (University of Texas, published 2018).

Biological target: RNA Polymerase II (RNAPII), phospho-Ser2 C-terminal domain (pS2-CTD) (UniProt P24928 1-1970)
Assay: co-immunoprecipitation with anti-c-myc antibody, Western blot for RNAPII
Procedure: Whole-cell lysates and nuclear extracts were prepared as previously described (Morales et al., 2014). See Supplementary Table S2 for a list of specific antibodies and dilutions used. Protein concentrations were determined by BCA Assay following manufacturer's instructions (Thermo Scientific). Normalized protein samples were separated on denaturing gradient gels (4-20% from BioRad) and were transferred to PVDF membranes for immunoblotting. After transfer, the membranes were first blocked with 1× Sigma Blocking Buffer for an hour at room temperature. The membranes were then incubated with the indicated primary antibodies diluted in 1× Sigma Blocking Buffer at 4° C. overnight. After this step, the membranes were washed with PBST (3×, 10 minutes each). HRP-conjugated secondary antibodies were diluted in 1× Sigma Blocking Buffer and incubated with the membranes at room temperature for 1 hr. […]
Log phase cells were plated in 10-cm dishes, and incubated after transfection with either empty pCMV-myc vector, myc-tagged wild-type K-H or myc-tagged mutant K-H (R106A) constructs for 48 hr using Lipofectamine 2000. […] Co-immunoprecipitated proteins (e.g., RNAPII) were analyzed by Western blot as previously described.

binding result: no binding
B1: myc-tagged mutant K-H (R106A) (other)
chain: MSSFSESALEKKLSELSNSQQSVQTLSLWLIHHRKHAGPIVSVWHRELRKAKSNRKLTFLYLANDVIQNSKRKGPEFTREFESVLVDAFSHVAREADEGCKKPLEALLNIWQERSVYGGEFIQQLKLSMEDSKSPPPKATEEKKSLKRTFQQIQEEEDDDYPGSYSPQDPSAGPLLTEELIKALQDLENAASGDATVRQKIASLPQEVQDVSLLEKITDKEAAERLSKTVDEACLLLAEYNGRLAAELEDRRQLARMLVEYTQNQKDVLSEKEKKLEEYKQKLARVTQVRKELKSHIQSLPDLSLLPNVTGGLAPLPSAGDLFSTD
notes: Expressed from a transfected myc-tagged construct and immunoprecipitated with anti-c-myc antibody; also called R106A mutant K-H; mutant R106A K-H; not shown: myc tag from the pCMV-myc vector
